Reference: article PMC5812673

Biological target: Insulin Aspart (human)
Assay: hexamer dissociation kinetics

Question: How did the Hexamer t½ (dissociation of the Zn2+-hexamer) turn out when Insulin Aspart (natural protein) was run?
Answer: 42.7 s
